The text below walks through data of the supplement of paper PMC10567573.

This data set is described as follows: protein stability index of a GFP-peptide fusion (GPS, HEK-293T) (PSI 1-6); higher = more stable. Conditions: c terminus: a fixed tail appended.

± gives the standard deviation.
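Further: 24-mer peptide tiles fused after GFP, lentivirally expressed, FACS-sorted into six equal bins by GFP/DsRed ratio, decoded by Illumina sequencing, PSI is the read-weighted mean bin number.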

Take GAILTTMLATRNFSGGKSGGNKKS [CAMK2A]: the protein stability index is, setting by setting: (treatment: DMSO) 3.67 ± 0.24; (treatment: MLN4924 1 uM, 8 h) 3.63 ± 0.41. Sequence SVRISFAKGWGPCYSRQFITSCPC [SMAD6] showed a protein stability index (treatment: DMSO) of 2.79 ± 0.67 and a protein stability index (treatment: MLN4924 1 uM, 8 h) of 2.78 ± 0.85. As for NRRRFRVRQPILQYRWDMMHRLGE [BEX1], the protein stability index is, setting by setting: (treatment: DMSO) 2.31 ± 0.15; (treatment: MLN4924 1 uM, 8 h) 2.17 ± 0.29.

For the sequence MKEFSNQVVGQVNVEMDATPGIDL [KRT13], the protein stability index runs as follows: (treatment: DMSO) 4.58 ± 0.16; (treatment: MLN4924 1 uM, 8 h) 4.44 ± 0.27. In turn, KMEEDIKEEEEKDHNEAMKPEEPP [PCMTD1] had a protein stability index (treatment: DMSO) of 5.57 ± 0.15 and a protein stability index (treatment: MLN4924 1 uM, 8 h) of 5.58 ± 0.31. With LPDCCHGSELRDFPGRPMGHLSKD [DLC1], the protein stability index by setting is: (treatment: DMSO) 4.44 ± 0.29; (treatment: MLN4924 1 uM, 8 h) 4.32 ± 0.27. For PRAVLKPRRVCVGGKRRRDDISVD [PPP2R2C], the protein stability index is, setting by setting: (treatment: DMSO) 4.02 ± 0.18; (treatment: MLN4924 1 uM, 8 h) 4.25 ± 0.39. For the sequence PGGPRNLKPTASKLGAPLSGLQGL [PDLIM4], the protein stability index by setting is: (treatment: DMSO) 3.54 ± 0.21; (treatment: MLN4924 1 uM, 8 h) 3.54 ± 0.053. The like results for WEMIRKIGDTSVSYKYTSRYVLKA [LMNB1] were, in that order, 1.98 ± 0.58 and 2.56 ± 0.49. For DKEVRAASTEADKRLSRFDIEMSM [NLN], the protein stability index runs as follows: (treatment: DMSO) 4.39 ± 0.32; (treatment: MLN4924 1 uM, 8 h) 4.74 ± 0.32. KYSLPWTTLDEFPLTRLGQLKACT [KCNG1]: the protein stability index runs as follows: (treatment: DMSO) 2.42 ± 0.25; (treatment: MLN4924 1 uM, 8 h) 2.61 ± 0.34. Regarding EMERTQAQLRDAVQSLQLSPRTRG [RASAL3], the protein stability index is 4.96 ± 0.36 (treatment: DMSO) and 4.77 ± 0.49 (treatment: MLN4924 1 uM, 8 h).

Consider HHLFPTMPRHNYHKVAPLVQSLCA [FADS1], for which the protein stability index runs as follows: (treatment: DMSO) 2.4 ± 0.32; (treatment: MLN4924 1 uM, 8 h) 2.51 ± 0.17. For the sequence FSPSQFLNFWNKQDTLELESPSLT [MYBL2], the protein stability index reads like this: (treatment: DMSO) 2.47 ± 0.55; (treatment: MLN4924 1 uM, 8 h) 3.06 ± 0.39. Regarding VHPIIKRRQCRPEIRMWQTREKAK [PHTF1], the protein stability index runs as follows: (treatment: DMSO) 3.15 ± 0.21; (treatment: MLN4924 1 uM, 8 h) 3.32 ± 0.13. As to QRFGEALQDQEKAWGFPENATAPR [ELOA2], the protein stability index by setting is: (treatment: DMSO) 4.78 ± 0.23; (treatment: MLN4924 1 uM, 8 h) 4.68 ± 0.46. As to QGWVREHCPESGEEAVILLEDLER [ZSCAN9], the protein stability index stood at 4.36 ± 0.12 (treatment: DMSO) and 4.7 ± 0.28 (treatment: MLN4924 1 uM, 8 h).

Sequence LNIKVKLEAEIATYRRLLEDGEDF [KRT18] gave a protein stability index (treatment: DMSO) of 2.66 ± 0.2 and a protein stability index (treatment: MLN4924 1 uM, 8 h) of 2.5 ± 0.34.

Sequence LIKPSRVVAILAAACLLQLDGLIQ [GMCL1] yielded a protein stability index (treatment: DMSO) of 3.11 ± 0.32 and a protein stability index (treatment: MLN4924 1 uM, 8 h) of 2.89 ± 0.27. The like results for ACGVAMELYVFGGVRSREDAQGSE [GAN] were, in that order, 2.22 ± 0.25 and 2.35 ± 0.096. As to PGDMKTKMELLILETQAQVCQALA [CPOX], the protein stability index runs as follows: (treatment: DMSO) 2.31 ± 0.26; (treatment: MLN4924 1 uM, 8 h) 2.37 ± 0.34.

For the sequence KKMESEEDSNWEKSPDNEDSGDSK [GOLPH3L], the protein stability index was found to be 5.63 ± 0.23 (treatment: DMSO) and 5.59 ± 0.26 (treatment: MLN4924 1 uM, 8 h).

In the case of GGPSSPPSDPPAMSPGPLDALSSP [C2CD2L], the protein stability index is, setting by setting: (treatment: DMSO) 5.23 ± 0.26; (treatment: MLN4924 1 uM, 8 h) 5.27 ± 0.14. As for MENKKKDKDKSDDRMARPSGRSGH [CSNK1G3], the protein stability index reads like this: (treatment: DMSO) 5.42 ± 0.34; (treatment: MLN4924 1 uM, 8 h) 5.31 ± 0.44. As for QEILELIDREVDLMMRGVKHHNLE [IQUB], the protein stability index reads like this: (treatment: DMSO) 2.67 ± 0.46; (treatment: MLN4924 1 uM, 8 h) 2.64 ± 0.5. Regarding ERVALANRKRECGNAHYQRADFVL [FKBP8], the protein stability index is, setting by setting: (treatment: DMSO) 2.98 ± 0.27; (treatment: MLN4924 1 uM, 8 h) 2.75 ± 0.12. The like results for SFTLEEEEEGGEEEEEAAMYEEEM [FAM50A] were, in that order, 5.47 ± 0.43 and 5.36 ± 0.2. In turn, VPWNQVGMRDADYIAAFLHVLLPV [HDAC6] showed a protein stability index (treatment: MLN4924 1 uM, 8 h) of 2.07 ± 1.5. Take LDSNGAGEKSENNSSNSDIVHVEK [BCL2L13]: the protein stability index by setting is: (treatment: DMSO) 5.57 ± 0.22; (treatment: MLN4924 1 uM, 8 h) 5.6 ± 0.13. On the same counts, the results for SVNFDGETIEGAPPLWAASAAGHL [FEM1C] are 3.52 ± 0.23 and 3.6 ± 0.23. Take KVASSDLVNMGISVVSYTLKDIHD [FLOT1]: the protein stability index by setting is: (treatment: DMSO) 2.34 ± 0.17; (treatment: MLN4924 1 uM, 8 h) 2.37 ± 0.29.

Sequence GSRCLKTFEVPEENTAETITRVLY [ZBED1] returned a protein stability index (treatment: DMSO) of 2.66 ± 0.47 and a protein stability index (treatment: MLN4924 1 uM, 8 h) of 2.64 ± 0.18. Take ESLDYDRCINDPYLEVLETMDNKK [CLCN6]: the protein stability index reads like this: (treatment: DMSO) 5.21 ± 0.25; (treatment: MLN4924 1 uM, 8 h) 5.29 ± 0.37. The sequence SKIDALSSEKLNLQKDLETRPTQH [CEP70] showed a protein stability index (treatment: DMSO) of 4.71 ± 0.29 and a protein stability index (treatment: MLN4924 1 uM, 8 h) of 4.71 ± 0.073. For QADLELIESAHRSRIKVLETSYQQ [FBF1], the protein stability index stood at 5.22 ± 0.16 (treatment: DMSO) and 5.11 ± 0.12 (treatment: MLN4924 1 uM, 8 h).

Sequence LRSRASRCRPRSLIDYKSYMDTKL [FAM189A2] yielded a protein stability index (treatment: DMSO) of 2.3 ± 0.28 and a protein stability index (treatment: MLN4924 1 uM, 8 h) of 2.19 ± 0.23.

MPPLLPLRLCRLWPRNPPSRLLGA [DNAJC4] gave a protein stability index (treatment: DMSO) of 2.29 ± 0.37 and a protein stability index (treatment: MLN4924 1 uM, 8 h) of 2.15 ± 0.11.
